From the nanobody polyreactivity screen of Harvey et al. (2022)

Test: yeast display, Sf9 membrane polyspecificity reagent, FACS + sequencing; frameworks hold sequencing errors
In short: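 Polyreactivity labels are assigned by the sorting gate from which each nanobody was recovered. The gates were low and high (top ~1%), set on anti-HA fluorescence for expression and streptavidin fluorescence for reagent binding. Before sorting, galactose-induced (36–48 hours) yeast display cells were stained for 1 hour at 4 °C with 10% biotinylated, detergent-solubilized Sf9 membrane reagent.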

Sequence: QVQLVESGGGLVQAGGSLRISCDASGSIYSSNALGWYSQAPGKERELVAAISSSGSRTYYADSVKGRFTISRDKALITVYVQMNSLIPVDTAVDYWAAVIRYTRSYDYWGQGTQVTVSS
- polyreactivity (PSR sort gate): high polyreactivity

Sequence: QVQLVESGGGLVQAGGSLRLSCASSGGTFISYAMGWYRQAPGKERELVAAISRGGSSTYYADSVKGRFTISRDNAKNTVYLQMNSLKPEDTAVYYCNKAYHRRDSEFGYWGQGTQVTVSS
- polyreactivity (PSR sort gate): high polyreactivity

Sequence: QVQLVESGGGLVQAAGSLRVSCAASGSIFYSNVMGWYRTEPGKERELVARISDAGSTNYADSVKGRFTISRDNAKNTVYLQMNSLKPEDTAVYYCNARLVIYTYDYWGQGTQVTVSS
- polyreactivity (PSR sort gate): low polyreactivity

Sequence: QVQLVESGGGLVQAGGSLRLSCAASGRILYVNAMGWYRQAPGKERELVAAISWRGGRTYYADSVKGRFTISRDHAKNTVYLQMNSLKPEDTAVYYCAARARGGYQRDYWGQGTQVTVSS
- polyreactivity (PSR sort gate): high polyreactivity

Sequence: QVQLVESGGGLGQARGSLRLSRAASGSPFEYNAMGWYRPAPGKERELVASSTNYADSVKGRFTISRDNAKNTVYLQMNSLKPEVTAVNSCAREPGVNRNHDYWGQGSQVTVSS
- polyreactivity (PSR sort gate): low polyreactivity

Sequence: QVQLVESGGGLVQAGGSLRLSCAASGSTLLVYAMGWYRQAPGKERELVAAITYSGTTTYYADSVKGRFTISRDNAKNTVYLQMNSLKPEDTAVYYCAKYPGYFQGNYWGQGTQVTVSS
- polyreactivity (PSR sort gate): low polyreactivity

Sequence: QVQHVESGGGIVQAGGSLRLSCAASGSIFRNNTMGWYRQAPGKERELVAAISGRGTRTSYADSVKGRFTISRDNAKNTVYLQMNSLKPEDTAVYYCAARSWYLYYWGQGTQVTVSS
- polyreactivity (PSR sort gate): low polyreactivity

Sequence: QVQLLESVGGLVQAGGSLRISCAASGIIFKSYAMGWYRQAPGKERELVAAISSGGSTYYVDSVKGRFTISRDNAKNTVYLQMNSLKPEDTAVYYCAAYGKYQGYGHWGQGTQVTVSS
- polyreactivity (PSR sort gate): high polyreactivity

Sequence: QVQLVESGGGLVQAGGSLRLRCAASGFIFGPNAMGWYRQAPGKEREFDAAINWSGGTTYYADSVKGRFTISRDNAKNTVYLQMNSLKPEDTAVYYCAASLYSDVAAVATYGYYWGQGTQVTVSS
- polyreactivity (PSR sort gate): low polyreactivity

Sequence: QVQLVESRGVLVQAGGSLRLSCAASGLTFGGNAKGWYRQAPGKERELVAAISWSDDTTDYADSVKGRFTISRDNAKNTVYLQMNSLKPEDTAVYYCAARLPFEHVDYWGQGTQVTVSS
- polyreactivity (PSR sort gate): low polyreactivity

Sequence: QVQLVESGGGLVQAGGSLRLSCAASGIIFVENAMGWYRQAPGKERELVAAISWDGGSTYYADSVKGRFTISRDNAKNTVYLQMNSLKPEDTAVYYCAADLTISYSQEYYYWGQGTQVTVSS
- polyreactivity (PSR sort gate): low polyreactivity

Sequence: QVQLLESGGGLVQAGGSLRLSCASSGRTFRQYVMVWYRQAPGKESELVAAITYSGGSTYFADSVKGRFTISRDNAKYSVYLQMNSLTPEDTAVYYCAARNGYCVGYWGQGTQVTVSS
- polyreactivity (PSR sort gate): high polyreactivity

Sequence: QVQLEESGGGVVQAGGSLRLSCAASGRTFYHKAMGWYRQAPGKETQVVATINSGGSTYADSVKGRFTISRDNAKNTVYLQMNSVKPEDTAVYYCAATFWSRSRFYYGYDYWGQGTQVTVSS
- polyreactivity (PSR sort gate): high polyreactivity

Sequence: QVQLVESGGGLVQAGGSLRLSCAASGGIFGINAMGWYRQAPGKEREFVAAITASGGTTYYADSVKGRFTISRDNAKNTVYLQMNSLKPEDTAVYYCAKRYRSYDYVWYEYWGQGTQVTVSS
- polyreactivity (PSR sort gate): high polyreactivity

Sequence: QVKLVDSGGGLVQAGGSLRLSCAASGRTFRYYTMGWYRQAPGTERELVAAITRNVGRTYYADSVKGRFTISRDNAKNTVYLQMNSLKPEDTAVYYCAAGTYDGGYHYDYWGQGTQLTVSS
- polyreactivity (PSR sort gate): high polyreactivity

Sequence: QVQLVESGGGLVQAGGSLRLSCAASGFTFYRYTMGWYRQAPGKERELVAAISRGGRTYYADSVKGRFTISRDNAKNTVYLQMNSLKPEDTAVYYCNARYPSADDWGQGTQVTVSS
- polyreactivity (PSR sort gate): high polyreactivity

Sequence: QVQLVESGGGLVQAGGSLRLSCAASGFTFNAMGWYRQAPGKERELVARIDSDDTTNYADSVKGRFTISRDNAKNTVYLQMNSLKPEDTAVYYCNKDYAWLSYQHYDYWGQGTQVTVSS
- polyreactivity (PSR sort gate): low polyreactivity

Sequence: QVQLVESGGGLVQAGGSLRLSCAASGGTFVYNAMGWYRQAPGKERELVAAIRVRGDTTYYADSVKGRFTISRDNAKYTVYLQMNSLKPEDTAVYYCAAYPDYSYYYWGQGTQVTVSS
- polyreactivity (PSR sort gate): high polyreactivity

Sequence: QVQLVESGGGLVQAGGSLRLSCAASGRTFSWNAMGWYRQAPGKERELVAAISNSGGSTYYADSVKGRFTISRDNAKNTVYLQMNSLKPEDTAVYYCAVYRYYGFSLWYDYWGQGTQVTVSS
- polyreactivity (PSR sort gate): low polyreactivity

Sequence: QVQLVESGGALVQAGGRLLLSCAASGRTFQGYVMGWYRQAPGKERELVAAISRGTSTYYADSVKGRFTISRDNAKNTVYLQMNSLKPEDTAGYYCAADGERRHYWGQGTQVTVSS
- polyreactivity (PSR sort gate): low polyreactivity

Sequence: QVQLVESGGGLVQAGGSLRLSCAASGSIFPGYAMGWDRQAPGKERQLVATITWSGGSTYYADSVKGRFTISRDNAKNTVYLQMNSLKPEDTAVYYCIADSNWYYQWNYYGLYDYWGQGTQVTVSS
- polyreactivity (PSR sort gate): low polyreactivity

Sequence: QVQLVESGGCLVQAGGSLRLSCAASGRTIRENVMGWYIQAPGKERELVAAITGNDGTTYYADSVKGRFTISRDNAKNTVNLQMNSLKPEDTAVYYCASERGDSAYRKYDYWGQGTQVTVSS
- polyreactivity (PSR sort gate): low polyreactivity

Sequence: QVQLVESGGGLVQAGGSLRLSCAASGSISPQNVMGWYRQAPGKERELVAAITGGGSTNYADSVKGRFTISRDNAKNTVYLQMNSLKPEDTAVYYCAVYRRYLPYDYWGQGTQVTVSS
- polyreactivity (PSR sort gate): low polyreactivity

Sequence: QVQLVESGGGLVQAGGSLRLSCAASGFIFKVYAMGWYRQAPGKERELVAAISSRGGRTNYADSVKGRFTISRDNAKNTVYLQMNSLKPEDTAVYYCATGAAGAYDYWGQGTQVTVSS
- polyreactivity (PSR sort gate): high polyreactivity

Sequence: QVQIVESGGGLVQAGGSLRLSCAASGRTFWRYTMGWYRQAPGKERELVASISTGGGSTYYADSVKGRFTISRDNAKNTVYLQMNSLKPEDTAVYYCNVEYVSVSRVWRGNYWGQGTQVTVSS
- polyreactivity (PSR sort gate): low polyreactivity

Sequence: QVQLVESGGGLVQAGGSLRLSCAASGLIFGRYAMGWYRQAPGKERELVAAISSSGVRTYYADSVKGRFTISRDNAKNTVYLQMNSLKPEDTAVSYCAAAYWSSREDTVIKSYYWGQGTQVTVSS
- polyreactivity (PSR sort gate): high polyreactivity

Sequence: QVQLVESVGGLDQAGGSLRLSCAASGRIFRYYAMGWDRQAPGKERELVAAITSDGRTYYADSVKGRFTISRDNAKNTVYLQMNSLKPEDTAVYYCAADHHSYRYGGYYYWGQGTQVTVSS
- polyreactivity (PSR sort gate): low polyreactivity

Sequence: QVQLVESGGGLVQAGGSLRLSCAASGLTFYIYAMGWYRQAHGKERELVASISSSGGITYYADSVKGRFTISRDNAKNTVYLQMNSLKPEDTAVYYCAATYSHRRGDYWGQGTQVTVSS
- polyreactivity (PSR sort gate): high polyreactivity

Sequence: QVQLQESRGGLVQAGGSLCLSFAASGTIFFDGDMGGYRQAPGKEREFVAAINPGGSGYYADSVKGRLPLAAITHTVYLQMNSLKPEDTAVYYCAAKLFDVYGYYYWGQGTQVTLSS
- polyreactivity (PSR sort gate): low polyreactivity

Sequence: QVQLVESVGGLVQAGGSLRLSCAASGSIIYHYPMGWYRHAPGKEAELVAAIYTTAGDTYYADSVKGRFTISRDNAKNTVYLQMNCLKPEDTAVYYCNASSSYFYYVRYDHWGQGTQVTVSS
- polyreactivity (PSR sort gate): low polyreactivity

Sequence: QVQLVESGGGLVQAGGSLRLSCAASGYTFFYMGWYRQAPGKEREFVAVITYSGGSTYYADSVKGRFTISRDNAKNTVYLQMNSLKPEDTAVYYCAAAVWHYGRPGYLDSGYDYWGQGTQVTVSS
- polyreactivity (PSR sort gate): low polyreactivity

Sequence: QVQLVESGGVLVQAGGSLRISCAASGIIFSYYAMGWYRQAPGKERELVAAIYRRGTSTYYADSVKGRFTISRDNAKNTVYLQMNSLKPEDTAVYYCNKSPYYTVWSTRCNQFSRFYYWGQGTQVTVSS
- polyreactivity (PSR sort gate): high polyreactivity

Sequence: QVQLVESGGGLVQAGGSLRLSCAASGFTFSNNAMGRYRQAPGKEREFVAAISGTGGSTYYADSLKGRFTISRDNANNTVYLQMNSLKPEDTAVYYCARRRTYPPGRYYYWGQGTQETVSS
- polyreactivity (PSR sort gate): high polyreactivity

Sequence: QVQLVESGGGLVEAGGSLRLSCAASASIFGLNAMGWYRQAPGKEREFVAAISWSDGSTYYADSVKGRFTISRDNAKNTVYLQMNSLKPEDTAVYYCSKATEYYAESDDYDYWGQGTQVTVSS
- polyreactivity (PSR sort gate): low polyreactivity

Sequence: QVLLQESGGGLVQAGGSLRLGCAASGTISPAYYMGRSLQAPGKEREFVAAITYGTNTYYADSVKGRFTISRDNAKNTVYLQMNSLKPEDTAVYYCSATAGYNGAHDYWGQATQVTVSS
- polyreactivity (PSR sort gate): low polyreactivity

Sequence: QVQLVESGGGLVQAGGSLRLSCAASGSISTYYAMGWYRPAPGKERDLVAAISKSGGSKYYADSVKGRFTISRDNAKNTVYLQMNSLKPEDTAVYYCAARYKGRAFWMDYWGQGTQVTVSS
- polyreactivity (PSR sort gate): high polyreactivity

Sequence: QVQLEESVGGLVQAGVSLRLSCAASGRFFYFYAMGWYRQAPAKERELVASISSGGITIYADSVKGRFTISRDNSKYTVYLQMYSLKREDTAVYYCNAGYASGKYSGVYLYGYLGQGTQVTVSS
- polyreactivity (PSR sort gate): low polyreactivity

Sequence: QVQLVESGGGLVQAGGSLRLSCAASGSIFELNAMGWYRQAPGKERELVAAITSSGSSTYYADSVKGRFTISRDNAKNTVYLQMNSLKPEDTAVYYGFRPHDYWGQGTQVTVSS
- polyreactivity (PSR sort gate): low polyreactivity

Sequence: QVQLVESGGGLVQAGGSLRLSCAASGGIFYIYAMGWYRQAPGQERELVAAISWRGTSTYYADSVKGRFTISRDNAKNTVYLQMNRLKPEDTAVYYCAADFSYTSYATRYQGDYWGQGTQVTVSS
- polyreactivity (PSR sort gate): low polyreactivity

Sequence: QVQLVESGGGLVQAGGSLRLSCAASGRTFYLYAMGWYRQAPGKERELVAAITKSGGSTYYADSVKGRFTISRDNAKNTVYLQMNSLKPEDTAVYYCATDGRWRLAGAFTGKRRTYDYWGQGTQVTVSS
- polyreactivity (PSR sort gate): low polyreactivity

Sequence: QVQHVESGGGLGQAGGILRLSCAGCGRTFVRYAMGWYRQAPGNERELVAAITRSASTYYADSVKGRFTISRDNAKKTVDLQMTSLKPEDTSVYYCNAVWSRYRDLDFWGQGTQVTVSS
- polyreactivity (PSR sort gate): high polyreactivity

Sequence: QVQLVESGGGLVQAGGSLRLSCAASGRIFRYYTMGWYRQEPGKERELVAAITGSGGSTYYADSVKGRFTISRDNAKTTVYLQMNSLKPEDTAVYYCAARGYLDMGYWGQGTQVTVSS
- polyreactivity (PSR sort gate): high polyreactivity

Sequence: QVQLVESGGGLVQAGGSLRLSCAASGIIFQSYTMGWYRQAPGKERELVAAIDSGGSTYYADSVKGRFTISRDNAKNTVYVQMNSLKPEDSAVYYCATDYPLYWSTLYDYDYWGQGTQVTVSS
- polyreactivity (PSR sort gate): low polyreactivity
